In the supplement of paper PMC9112550, “Optimization of the antimicrobial peptide Bac7 by deep mutational scanning” (BMC Biology, 2022):

system: Escherichia coli TOP10; assay: shrunken log2 fold change of peptide-encoding DNA abundance (4.5 h post-induction vs induction); higher = less antimicrobial activity (less host growth inhibition); settings: time post-induction: 4.5 h; library: site-saturation at positions 5, 18, 19, 20
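Further: peptides expressed intracellularly from a pBAD plasmid library in pooled LB shake-flask culture, induced with 0.3% L-arabinose, DNA abundance read by NGS, three biological replicates, DESeq2 with apeglm shrinkage.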

| Sequence | shrunken log2 fold change |
| --- | --- |
| RRIRTRPPRLPRPRPRPVYKPRP | -0.188 |
| RRIRTRPPRLPRPRPRPWCGPRP | -0.0198 |
| RRIRTRPPRLPRPRPRPWCYPRP | -0.291 |
| RRIRTRPPRLPRPRPRPWDDPRP | 0.033 |
| RRIRTRPPRLPRPRPRPWDGPRP | 0.0729 |
| RRIRTRPPRLPRPRPRPWDRPRP | -0.105 |
| RRIRTRPPRLPRPRPRPWFHPRP | -0.362 |
| RRIRTRPPRLPRPRPRPWFKPRP | -0.214 |
| RRIRTRPPRLPRPRPRPWFLPRP | -0.401 |
| RRIRTRPPRLPRPRPRPWFTPRP | 0.00948 |
| RRIRTRPPRLPRPRPRPWGTPRP | -0.11 |
| RRIRTRPPRLPRPRPRPWHSPRP | -0.274 |
| RRIRTRPPRLPRPRPRPWILPRP | -0.23 |
| RRIRTRPPRLPRPRPRPWKGPRP | 0.143 |
| RRIRTRPPRLPRPRPRPWLLPRP | -0.186 |
| RRIRTRPPRLPRPRPRPWLVPRP | -0.0639 |
| RRIRTRPPRLPRPRPRPWMMPRP | 0.0505 |
| RRIRTRPPRLPRPRPRPWMSPRP | 0.00487 |
| RRIRTRPPRLPRPRPRPWNDPRP | -0.271 |
| RRIRTRPPRLPRPRPRPWNIPRP | 0.0303 |
| RRIRTRPPRLPRPRPRPWPEPRP | 0.0147 |
| RRIRTRPPRLPRPRPRPWPVPRP | -0.105 |

| Sequence | shrunken log2 fold change |
| --- | --- |
| RRIRTRPPRLPRPRPRPWQLPRP | -0.189 |
| RRIRTRPPRLPRPRPRPWQNPRP | -0.0181 |
| RRIRTRPPRLPRPRPRPWQVPRP | -0.0764 |
| RRIRTRPPRLPRPRPRPWRAPRP | 0.21 |
| RRIRTRPPRLPRPRPRPWSEPRP | -0.364 |
| RRIRTRPPRLPRPRPRPWSNPRP | 0.0394 |
| RRIRTRPPRLPRPRPRPWVFPRP | 0.0157 |
| RRIRTRPPRLPRPRPRPWWIPRP | -0.869 |
| RRIRTRPPRLPRPRPRPWWTPRP | -0.045 |
| RRIRTRPPRLPRPRPRPWYRPRP | -0.23 |
| RRIRTRPPRLPRPRPRPWYVPRP | -0.275 |
| RRIRTRPPRLPRPRPRPYACPRP | -0.216 |
| RRIRTRPPRLPRPRPRPYADPRP | -0.22 |
| RRIRTRPPRLPRPRPRPYAFPRP | -0.17 |
| RRIRTRPPRLPRPRPRPYCAPRP | -0.732 |
| RRIRTRPPRLPRPRPRPYEFPRP | -0.202 |
| RRIRTRPPRLPRPRPRPYELPRP | -0.854 |
| RRIRTRPPRLPRPRPRPYFEPRP | -0.223 |
| RRIRTRPPRLPRPRPRPYFFPRP | -0.684 |
| RRIRTRPPRLPRPRPRPYFVPRP | -0.258 |
| RRIRTRPPRLPRPRPRPYGSPRP | -0.154 |
| RRIRTRPPRLPRPRPRPYKPPRP | -0.551 |

| Sequence | shrunken log2 fold change |
| --- | --- |
| RRIRTRPPRLPRPRPRPYLTPRP | -0.171 |
| RRIRTRPPRLPRPRPRPYLWPRP | -0.284 |
| RRIRTRPPRLPRPRPRPYNEPRP | -1.35 |
| RRIRTRPPRLPRPRPRPYPIPRP | 0.00205 |
| RRIRTRPPRLPRPRPRPYPTPRP | -0.374 |
| RRIRTRPPRLPRPRPRPYQGPRP | -0.0132 |
| RRIRTRPPRLPRPRPRPYRDPRP | -0.383 |
| RRIRTRPPRLPRPRPRPYSKPRP | -0.565 |
| RRIRTRPPRLPRPRPRPYSQPRP | -0.0274 |
| RRIRTRPPRLPRPRPRPYSRPRP | 0.0299 |
| RRIRTRPPRLPRPRPRPYTCPRP | -0.0764 |
| RRIRTRPPRLPRPRPRPYTIPRP | -1.21 |
| RRIRTRPPRLPRPRPRPYTMPRP | -0.232 |
| RRIRTRPPRLPRPRPRPYTRPRP | -0.0177 |
| RRIRTRPPRLPRPRPRPYVKPRP | -0.221 |
| RRIRTRPPRLPRPRPRPYWYPRP | -0.574 |
| RRIRVRPPRLPRPRPRPAEGPRP | -0.0119 |
| RRIRVRPPRLPRPRPRPAETPRP | 0.344 |
| RRIRVRPPRLPRPRPRPAFDPRP | -0.339 |
| RRIRVRPPRLPRPRPRPAFSPRP | 0.104 |
| RRIRVRPPRLPRPRPRPAFYPRP | -0.135 |
| RRIRVRPPRLPRPRPRPAGSPRP | 0.29 |

| Sequence | shrunken log2 fold change |
| --- | --- |
| RRIRVRPPRLPRPRPRPAHNPRP | -0.296 |
| RRIRVRPPRLPRPRPRPAIVPRP | -0.149 |
| RRIRVRPPRLPRPRPRPAIWPRP | 0.0627 |
| RRIRVRPPRLPRPRPRPAKGPRP | -0.283 |
| RRIRVRPPRLPRPRPRPAMMPRP | 0.464 |
| RRIRVRPPRLPRPRPRPANEPRP | -0.174 |
| RRIRVRPPRLPRPRPRPANFPRP | 0.0908 |
| RRIRVRPPRLPRPRPRPANTPRP | -0.0315 |
| RRIRVRPPRLPRPRPRPAPFPRP | 0.0259 |
| RRIRVRPPRLPRPRPRPAPMPRP | 0.324 |
| RRIRVRPPRLPRPRPRPAPYPRP | -0.00665 |
| RRIRVRPPRLPRPRPRPARDPRP | 0.355 |
| RRIRVRPPRLPRPRPRPASDPRP | 0.347 |
| RRIRVRPPRLPRPRPRPASKPRP | -0.0732 |
| RRIRVRPPRLPRPRPRPATAPRP | 0.18 |
| RRIRVRPPRLPRPRPRPAYAPRP | -0.129 |
| RRIRVRPPRLPRPRPRPAYMPRP | -0.271 |
| RRIRVRPPRLPRPRPRPCCCPRP | 0.0615 |
| RRIRVRPPRLPRPRPRPCCQPRP | -0.19 |
| RRIRVRPPRLPRPRPRPCEKPRP | -0.0491 |
| RRIRVRPPRLPRPRPRPCESPRP | -0.374 |
| RRIRVRPPRLPRPRPRPCFEPRP | -0.0173 |

| Sequence | shrunken log2 fold change |
| --- | --- |
| RRIRVRPPRLPRPRPRPCFRPRP | -0.164 |
| RRIRVRPPRLPRPRPRPCGEPRP | -0.256 |
| RRIRVRPPRLPRPRPRPCGHPRP | 0.0386 |
| RRIRVRPPRLPRPRPRPCHFPRP | -0.0858 |
| RRIRVRPPRLPRPRPRPCIMPRP | -0.514 |
| RRIRVRPPRLPRPRPRPCKHPRP | -0.483 |
| RRIRVRPPRLPRPRPRPCLSPRP | -0.153 |
| RRIRVRPPRLPRPRPRPCMSPRP | -0.0664 |
| RRIRVRPPRLPRPRPRPCNNPRP | 0.0786 |
| RRIRVRPPRLPRPRPRPCPWPRP | 0.0617 |
| RRIRVRPPRLPRPRPRPCPYPRP | -1.14 |
| RRIRVRPPRLPRPRPRPCSMPRP | -0.177 |
| RRIRVRPPRLPRPRPRPCTEPRP | -0.167 |
| RRIRVRPPRLPRPRPRPCTLPRP | -0.196 |
| RRIRVRPPRLPRPRPRPCVCPRP | -0.0618 |
| RRIRVRPPRLPRPRPRPCVGPRP | 0.00147 |
| RRIRVRPPRLPRPRPRPCWEPRP | -0.0578 |
| RRIRVRPPRLPRPRPRPCWRPRP | 0.0437 |
| RRIRVRPPRLPRPRPRPCYEPRP | -0.246 |
| RRIRVRPPRLPRPRPRPCYIPRP | -0.281 |
| RRIRVRPPRLPRPRPRPDATPRP | 0.299 |
